Square brackets hold non-standard residues; d marks the D form. Ends that are not written are not given here.
Target: T1, mouse ADAMTS7 (Mus musculus, UniProt Q68SA9, E373Q)
T1 construct: Full-length mouse Adamts7 1-1857 (Uniprot Q68SA9, WT or E373Q catalytic mutant); expressed in transfected cells; host or cells: Human Coronary Artery Smooth Muscle Cells (HCA-SMC, Lonza), adenovirus 50 MOI
T1 sequence (Q68SA9 221-1657 E373Q): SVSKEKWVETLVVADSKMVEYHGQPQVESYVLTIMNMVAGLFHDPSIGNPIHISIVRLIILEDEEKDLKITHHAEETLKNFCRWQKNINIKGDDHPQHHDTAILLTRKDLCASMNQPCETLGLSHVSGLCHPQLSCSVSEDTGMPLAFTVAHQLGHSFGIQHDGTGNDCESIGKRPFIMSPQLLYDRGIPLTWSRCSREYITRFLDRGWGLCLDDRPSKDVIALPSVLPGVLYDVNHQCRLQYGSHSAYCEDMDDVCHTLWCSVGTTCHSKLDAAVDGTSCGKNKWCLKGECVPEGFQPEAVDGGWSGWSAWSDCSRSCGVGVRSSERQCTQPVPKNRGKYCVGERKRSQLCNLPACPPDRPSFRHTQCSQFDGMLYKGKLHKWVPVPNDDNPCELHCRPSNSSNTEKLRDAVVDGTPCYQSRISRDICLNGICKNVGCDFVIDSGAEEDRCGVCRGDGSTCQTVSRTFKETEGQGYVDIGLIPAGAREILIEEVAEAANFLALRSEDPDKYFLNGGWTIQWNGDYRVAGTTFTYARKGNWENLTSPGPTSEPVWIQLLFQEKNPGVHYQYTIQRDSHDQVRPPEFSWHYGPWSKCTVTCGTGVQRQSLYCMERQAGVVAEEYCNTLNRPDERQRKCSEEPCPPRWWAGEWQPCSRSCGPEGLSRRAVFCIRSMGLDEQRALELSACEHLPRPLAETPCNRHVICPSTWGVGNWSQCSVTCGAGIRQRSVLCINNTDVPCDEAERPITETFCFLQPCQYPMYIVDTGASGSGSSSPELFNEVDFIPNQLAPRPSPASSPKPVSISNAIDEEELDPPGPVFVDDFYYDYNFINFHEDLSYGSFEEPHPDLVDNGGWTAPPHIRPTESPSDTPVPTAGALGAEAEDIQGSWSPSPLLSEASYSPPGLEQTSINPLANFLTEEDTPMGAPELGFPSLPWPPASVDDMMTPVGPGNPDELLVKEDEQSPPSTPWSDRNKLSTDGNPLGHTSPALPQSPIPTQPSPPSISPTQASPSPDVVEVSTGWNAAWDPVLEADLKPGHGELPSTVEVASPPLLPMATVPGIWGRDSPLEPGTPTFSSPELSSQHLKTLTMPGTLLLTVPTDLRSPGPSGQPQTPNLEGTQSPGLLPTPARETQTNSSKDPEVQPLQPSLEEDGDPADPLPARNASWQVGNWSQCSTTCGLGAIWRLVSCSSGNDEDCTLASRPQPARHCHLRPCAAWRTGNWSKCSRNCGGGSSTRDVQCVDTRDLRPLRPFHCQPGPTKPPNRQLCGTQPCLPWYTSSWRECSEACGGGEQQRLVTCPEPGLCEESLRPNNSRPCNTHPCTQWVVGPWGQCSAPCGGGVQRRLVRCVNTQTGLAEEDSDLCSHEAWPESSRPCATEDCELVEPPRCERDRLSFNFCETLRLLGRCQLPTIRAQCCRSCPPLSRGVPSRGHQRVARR
Experiment: TMT10 TAILS N-terminomics, SMC2 experiment (process replicates, trypsin/AspN digest)
Assay type: cell-based
Conditions: SMC2_TAILS HC; log fold change of N-terminal peptide, Ad-mADAMTS7 EQ over Luc
Summary of the method: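 Full-length mouse ADAMTS7 (WT or E373Q mutant, C-terminal 3xFLAG) or luciferase was transduced via adenovirus, 50 MOI, into HCA-SMC (SMC1, SMC2) or HUVEC. SMC1: pooled media, technical triplicates 400 ug; SMC2: process triplicates 300 ug; HUVEC: process triplicates 200 ug, bFGF2 10 ng/ml.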

Point of comparison: “VCAN_3367 (FKNSSSAK; listed as Homo sapiens)”, logFC.mEQ.over.Luc −0.72. Against it:
- ZSCAN4_25 (FQQSQGPAVQR; listed as Homo sapiens) — higher, −0.09
- VIM_322 (QVQSLTCEV; listed as Homo sapiens) — higher, −0.10
- VIM_276 (YESVAAKNLQ; listed as Homo sapiens) — higher, 0.06

Same assay, conditions: SMC2_TAILS HC; log fold change, mEQ over Luc

Point of comparison: “APLP2_452 (LVETHLAR; listed as Homo sapiens)”, logFC.mEQ.over.Luc 0.11. Against it:
- FN1_99 (DKYTGNTYR; listed as Homo sapiens) — within 0.2 log units, −0.08
- FN1_1780 (LQGLRPGSEYTVSVVALH; listed as Homo sapiens) — lower, −0.34
- LOX_125 (FQAGYSTSR; listed as Homo sapiens) — the same, 0.11
- AMER2_654 (LAGTTIRATACH; listed as Homo sapiens) — within 0.2 log units, 0.05
- FSTL_1290 (LQKHQETA; listed as Homo sapiens) — lower, −0.28
- ACTN4_5 (HAANQSYQYGPSSAGNGAGGGGSMG; listed as Homo sapiens) — within 0.2 log units, 0.00
- FLNA_689 (VNKPAEFTV; listed as Homo sapiens) — lower, −1.45
- LASP1_182 (SYGGYKEPAAPVSIQR; listed as Homo sapiens) — lower, −0.14
- FN1_1805 (LIGTQSTAIPAPT; listed as Homo sapiens) — higher, 0.71
- FBLN2_665 (FSQVASNTIPLPLPQPNTCK; listed as Homo sapiens) — lower, −0.15
- FN1_607 (SSSGPVEVFIT; listed as Homo sapiens) — higher, 0.45
- HEG1_224 (FQTKSGTAS; listed as Homo sapiens) — within 0.2 log units, 0.29
- ECM1_38 (FQEVGYAAPPSPPLSR; listed as Homo sapiens) — within 0.2 log units, −0.02
- EEF1G_23 (QYSGAQVR; listed as Homo sapiens) — lower, −0.12
- DBN1_434 (APVEPATA; listed as Homo sapiens) — within 0.2 log units, 0.03
- FLNC_2649 (FVGQKNSFTV; listed as Homo sapiens) — within 0.2 log units, −0.06
- ACTG1_105 (LTEAPLNPKANR; listed as Homo sapiens) — lower, −0.31
- CCL2_28 (INAPVTCCYNFTNR; listed as Homo sapiens) — lower, −0.11
- EMSY_943 (QTVVQVLAVK; listed as Homo sapiens) — within 0.2 log units, 0.20
- FN1_1693 (LQPTVEYVVSVYAQNPSG; listed as Homo sapiens) — within 0.2 log units, −0.07
- CALU_176 (FTAFLHPEEY; listed as Homo sapiens) — within 0.2 log units, −0.01
- ECM1_44 (AAPPSPPLSR; listed as Homo sapiens) — lower, −0.28
- DIS3L_75 (FPELKGIIFMQTACQAVQHQR; listed as Homo sapiens) — within 0.2 log units, −0.02
- CEP192_728 (DKSTAGR; listed as Homo sapiens) — lower, −0.62
- CAP1_300 (FSAPKPQTSPSPKR; listed as Homo sapiens) — within 0.2 log units, 0.09
- EIF4B_426 (QTGTSTTSSR; listed as Homo sapiens) — higher, 0.49
- FN1_35 ([code q]MVQPQSPVAVSQSKPGCY; not fully specified (residue 2); listed as Homo sapiens) — lower, −0.09
- APOA1_86 (EQLGPVTQEFW; listed as Homo sapiens) — within 0.2 log units, −0.07
- LOX_60 (LGSQYQPQR; listed as Homo sapiens) — lower, −0.34
- FOXG1_235 (LNKCFVKVPRHY; listed as Homo sapiens) — within 0.2 log units, 0.07
- ADAM10_86 (FKVETSNKVL; listed as Homo sapiens) — lower, −0.29
- LOXL1_157 (SVSASAFASTYR; listed as Homo sapiens) — lower, −0.19
- KCND1_436 (RLAKSGTTNAFLQYKQNGGLE; listed as Homo sapiens) — lower, −0.14
- KRT28_2 (SLQFSNGSR; listed as Homo sapiens) — lower, −0.34
- BMPER_43 (LTGSVAKCENEG; listed as Homo sapiens) — within 0.2 log units, −0.06
- ADNP2_375 (SQPVGPVNK; listed as Homo sapiens) — higher, 4.60
- ECM1_108 (QEAVPLQK; listed as Homo sapiens) — lower, −0.22
- CTSB_109 (WAFGAVEAIS; listed as Homo sapiens) — within 0.2 log units, −0.08

Same assay, conditions: log fold change, ADAMTS7 EQ over luciferase

Point of comparison: “TGFBI_24 (GPAKSPYQLVLQHSR; listed as Homo sapiens)”, logFC.mEQ.over.Luc 0.05. Against it:
- STC2_244 (HHLPEPSSR; listed as Homo sapiens) — lower, −0.26
- TGFBI_50 (AVQKVIGTNR; listed as Homo sapiens) — higher, 0.33
- TGFBI_497 (VLTPPMGTVMDVLKGDNR; not fully specified (residue 6); listed as Homo sapiens) — within 0.2 log units, 0.14
- TGFBI_524 (SAGLTETLNR; listed as Homo sapiens) — within 0.2 log units, 0.18
- TMEM132A_52 (LLDAPEHFR; listed as Homo sapiens) — lower, −0.30
- VASP_229 (AIAGAKLR; listed as Homo sapiens) — within 0.2 log units, −0.08
- SPOCK1_126 (HWVGPSNLVK; listed as Homo sapiens) — higher, 0.36
- THBS1_972 (QNDPNWVVR; listed as Homo sapiens) — within 0.2 log units, −0.04
- STC2_239 (HGEAGHHLPEPSSR; listed as Homo sapiens) — within 0.2 log units, −0.11
- SRGN_50 (LEEKGPMFELLPGESNKIPR; listed as Homo sapiens) — within 0.2 log units, −0.07
- TGFBI_208 (GIVTVNCAR; listed as Homo sapiens) — higher, 0.30
- SDC4_106 (LEENEVIPKR; listed as Homo sapiens) — lower, −0.35
- TG_1017 (GASALLR; listed as Homo sapiens) — higher, 1.03
- SRGN_62 (GESNKIPR; listed as Homo sapiens) — lower, −0.45
- QSOX1_558 (VAAAPELAMGALELESR; listed as Homo sapiens) — lower, −0.19
- TLN1_1501 (HTSALCNSCR; listed as Homo sapiens) — lower, −0.17
- TGFBI_534 (EGVYTVFAPTNEAFR; listed as Homo sapiens) — within 0.2 log units, 0.09
- SRGN_60 (LPGESNKIPR; listed as Homo sapiens) — higher, 0.32
- TGFBI_276 (TLLAPT[code n]EAFEKIPSETLNR; not fully specified; listed as Homo sapiens) — within 0.2 log units, 0.09
- TGFBI_43 ([code q]HGPNVCAVQKVIGTNR; not fully specified; listed as Homo sapiens) — within 0.2 log units, 0.10
- STC1_37 (QNSAEVVR; listed as Homo sapiens) — lower, −0.22
- SMOC1_35 (LISDRDPQCNLHCSR; listed as Homo sapiens) — within 0.2 log units, 0.14
- SRGN_51 (EEKGPMFELLPGESNKIPR; listed as Homo sapiens) — within 0.2 log units, −0.13
- VIM_433 (LVDTHSKR; listed as Homo sapiens) — within 0.2 log units, 0.12

Reference: US20240368668A1, “SUBSTRATES AND BIOMARKERS OF ADAMTS7” (The Broad Institute, Inc., priority 2021, published 2024)
